Substitutions are numbered along the chain they refer to.
B1: anti-ROR1 antibody clone G6 (antibody, V domains shown)
VH: EVQLVESGGGVVQPGGSLRLSCAASGFTFDDYAMHWVRQAPGKGLEWVSLISGDGGSTYYADSVKGRFTISRDNAKNSLYLQMNSLRAEDTAVYYCARDNWNDVYYYYGMDVWGQGTTVTVSS
VL: DIQLTQSPSSLSASIGDTVTISCQASRDISDYLNWYQHKPGKAPKLLIYDASNLATGVPSRFSGSGSGTDFTLTIKSLQPEDVATYFCQQDDLLPLTFGGGTKVDIK
B2: anti-ROR1 antibody clone C3 (antibody, V domains shown)
VH: QVQLQESGPGLVKPSETLSLTCTVSGGSISSYYWSWIRQLPGKGLEWIGYMHYSGSTSYNPSLKGRLTISVDTSTNQFSLKLGSVTAADTAVYYCARYYYHDSSGYYSYFDYWGQGTLVTVSS
VL: EIVLTQSPGTLSLSPGERATLSCRASQSVSSYLAWYQQKAGQAPRLLIYDASNRASGIPARFSGSGSGTDFTLTISSLEPEDFAVYYCQQRSNWPPTFGGGTKVEIK
notes: also called anti-ROR1 (clone C3)
B3: anti-ROR1 antibody clone G3 (antibody, V domains shown)
VH: QVQLQQWGAGLLKPSETLSLTCAVYGGSFSGYYWSWIRQPPGKGLEWIGEINHSGSTSYNPSLKSRVTISVDTSKNQFSLKLSSVTAADTAVYYCARGHSSGWYRRYFDLWGRGTLVTVSS
VL: B2 VL with G9A, A40P, S56T, R61K

Tests used:
[1] = target: T1, human ROR1 expressed on CHO-K1 cells (human, UniProt Q01973 30-937); assay: flow cytometry on CHO-K1-ROR1 cells, PE anti-human IgG-Fc
T1 construct: whole, on cells; also called CHO-K1-ROR1
T1 sequence (Q01973 30-937): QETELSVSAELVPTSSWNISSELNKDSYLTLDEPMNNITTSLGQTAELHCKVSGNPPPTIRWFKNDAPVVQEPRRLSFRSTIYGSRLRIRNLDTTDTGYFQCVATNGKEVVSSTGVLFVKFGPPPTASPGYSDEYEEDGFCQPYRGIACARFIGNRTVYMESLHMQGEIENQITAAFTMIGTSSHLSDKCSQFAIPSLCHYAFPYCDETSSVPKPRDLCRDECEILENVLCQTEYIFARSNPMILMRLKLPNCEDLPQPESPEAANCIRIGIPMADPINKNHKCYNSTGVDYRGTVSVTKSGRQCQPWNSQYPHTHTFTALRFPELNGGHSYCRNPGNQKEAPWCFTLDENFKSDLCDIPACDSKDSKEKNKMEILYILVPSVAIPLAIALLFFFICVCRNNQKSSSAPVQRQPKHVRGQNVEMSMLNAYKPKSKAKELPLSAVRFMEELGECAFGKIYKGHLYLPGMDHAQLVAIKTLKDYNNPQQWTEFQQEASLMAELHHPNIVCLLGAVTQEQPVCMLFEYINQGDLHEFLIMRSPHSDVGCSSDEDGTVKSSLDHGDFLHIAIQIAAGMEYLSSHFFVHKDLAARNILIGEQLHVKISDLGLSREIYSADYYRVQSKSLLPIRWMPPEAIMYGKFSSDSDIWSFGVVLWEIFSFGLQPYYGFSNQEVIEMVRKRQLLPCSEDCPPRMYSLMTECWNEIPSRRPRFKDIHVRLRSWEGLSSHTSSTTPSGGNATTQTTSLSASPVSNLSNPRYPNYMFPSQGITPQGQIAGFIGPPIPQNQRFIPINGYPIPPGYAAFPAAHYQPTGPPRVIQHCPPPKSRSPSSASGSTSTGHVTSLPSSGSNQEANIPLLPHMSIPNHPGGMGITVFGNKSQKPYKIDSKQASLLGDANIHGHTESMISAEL
Description: CHO-K1 cell line was transduced with lentivector carrying human ROR1. CHO-K1-ROR1 cells were resuspended in FACS buffer and Fc receptors were blocked prior to incubation with purified ROR1 mAbs. 5×10⁵ cells in 100 μL FACS buffer were aliquoted to separate tubes and the purified mAb was added. Antibody concentration is from about 30 μg/mL to about 0.000508 μg/mL. Cells were incubated at 4 degrees for 1 hour, then washed twice with excess FACS buffer. Cells were resuspended in 100 μL FACS buffer and 0.5 μg of anti-human IgG-Fc (PE) secondary antibody (ab98596) was added to samples, incubated for 30 minutes and washed twice with excess FACS buffer.

[2] = target: T2, Human ROR1-ECD (human, UniProt Q01973 30-406); assay: BLI (Fortebio Octet RED96), mAb on AHC biosensor, human ROR1-ECD as analyte
T2 construct: extracellular domain; Analyte in the Fortebio Octet assay; also called ROR1-derived extracellular domain fragment
T2 sequence (Q01973 30-406): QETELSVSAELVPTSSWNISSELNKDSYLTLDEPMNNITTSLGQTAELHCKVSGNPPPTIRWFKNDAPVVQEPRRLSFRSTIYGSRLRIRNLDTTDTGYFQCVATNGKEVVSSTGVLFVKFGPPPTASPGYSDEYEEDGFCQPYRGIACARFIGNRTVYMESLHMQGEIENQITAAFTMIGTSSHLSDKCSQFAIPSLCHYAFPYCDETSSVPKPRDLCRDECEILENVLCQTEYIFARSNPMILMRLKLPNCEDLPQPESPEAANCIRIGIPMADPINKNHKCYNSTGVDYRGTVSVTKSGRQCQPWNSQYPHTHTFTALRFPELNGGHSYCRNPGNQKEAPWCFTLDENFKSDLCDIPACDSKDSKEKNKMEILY
Description: Human ROR1-ECD was diluted in KB buffer (0.1% BSA, 0.05% Tween 20, 1×PBS, pH 7.4) to various concentrations (from about 500 nM to about 62.5 nM), and the mAb was also diluted in KB buffer to 10 μg/mL. The mAb was loading to anti-hIgG Fc Capture (AHC) Biosensors (PALL, Fortebio), and the diluted Human ROR1-ECD was associated with Mab, then dissociated in KB buffer. Association (k-on) and dissociation (k-off) rate constants were calculated based on a 1:1 Langmuir binding model using Fortebio Date Analysis 7.1 software (PALL, Fortebio).

Row | binding result [1] | binding result [2] | Binder
1 | binds | binds | B1
2 | binds | binds | B2
3 | binds | binds | B3

From patent publication US20220356246A1 (NANJING IMMUNOPHAGE BIOTECH, published 2022)
